Experiments:
Settings in all cases: EMSA: 20 nM probe, 10 mM Tris-HCl pH 7.5, 50 mM KCl, 10 mM MgCl2, 5% glycerol, 20 min at 4 C, 5% native PAGE in TGE pH 8.3; footprinting: same binding system …
[1] = tested on: T1, CopR2 (Pseudomonas putida KT2440), ORF:6041cc23; test: DNase I footprinting
T1 sequence: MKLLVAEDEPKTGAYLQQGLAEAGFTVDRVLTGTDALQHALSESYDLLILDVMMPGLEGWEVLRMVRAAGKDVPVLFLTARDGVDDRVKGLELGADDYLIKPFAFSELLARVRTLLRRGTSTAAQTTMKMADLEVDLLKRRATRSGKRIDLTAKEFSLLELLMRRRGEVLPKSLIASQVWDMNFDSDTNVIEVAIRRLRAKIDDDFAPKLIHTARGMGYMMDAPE

[2] = tested on: T2, CopR1 (Pseudomonas putida KT2440), ORF:c26c307e; test: DNase I footprinting
T2 sequence: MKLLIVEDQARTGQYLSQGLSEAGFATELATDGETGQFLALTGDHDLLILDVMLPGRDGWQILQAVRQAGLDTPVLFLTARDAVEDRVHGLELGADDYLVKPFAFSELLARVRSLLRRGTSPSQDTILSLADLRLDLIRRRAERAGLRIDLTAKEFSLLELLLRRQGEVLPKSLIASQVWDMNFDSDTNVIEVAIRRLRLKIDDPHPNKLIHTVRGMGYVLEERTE

[3] = tested on: T1, CopR2 (Pseudomonas putida KT2440), ORF:6041cc23; test: EMSA
[4] = tested on: T2, CopR1 (Pseudomonas putida KT2440), ORF:c26c307e; test: EMSA

Measured: binding

TGTAAAACGACGGCCAGTGGGTGGCGGTAATGAACAGGTGTTTCATGATGACTCCGGGAATACACAGCAGGATGAGGCCACATTAGCCGGGGGCGACTGGCAGCTACCTGACAGGCACATTACAACTTTGTCAGCTTGGGCGAGCGGGCACATCGTCACGTATCATTTCAGCCATCCCATTGCCCCTGTGCTAGCGGTAAGGCGGCGCCATAGGCTACGCACAATCTTTCAGAATATGGACAGCGCATGAAACTGCTGATCGTCGAAGACCAGGC (double strand) [copR1 (copRS1) promoter probe]
binds: all assays above

CTTTGACAAACGTACGGCGGGAGGGGTTGCGCAACATGGCGAGGCCTCATGCGGAATAGCCACGATGTTCGCTGCCGCCTGCTGTCAGGTAGCTGAGGTGCACATTACAGTGTTGTCAGCTTGCTGCTTCGTCGATGCGCAGGTCGCGCATCAGCAGGCCGTAGTCGAGGGCAACCTGTTCCGGGATCGGCAGATACACCACATGGCCATCGCCCGGTGCGACCTCGATGGCGTGCTGCTACTGGCCGTCGTTTTACA (double strand) [copA1 (copAB1) promoter probe]
binds: all assays above

TCGGTTCATCCTCAGCTACGAGTAGTTTCATGTGCTCAGCTTCCAAAGGTGTACACATCCAGTGTGCAGCAAAAAAAGGAGCTAACCAGAAGCTGACGTAAAAGTAATGTTGGTATCAGCCAGCTGTCAGGGCCTGCCGTCTACGGTCATTGAAGACGGGCATTGCAGTCACGCCTGCCGTTATCGGTAGCAATGGTTTCAACCCCCTGATGGAGAGAGTCCCATGAAATCGATCAGACTTTTGCTTGTGGCTACATCGATGCTGCTGACTGGCCGTCGTTTTACA (double strand) [copR2 (copRS2) promoter probe]
binds: all assays above

TGTAAAACGACGGCCAGTAGCCAGAGCCATAAACACGGGCAGCATGAGAACTGCTGATCCGAGCTTACAGAAATGTAATCACTCGGGAATCTTTTATGTGGCAGTTTCAAATCGCTTTCTCCCACTGTGACTTGCGCTTTCGAGCAAGTCCCTAAGACTTGTGGGATCCCCAAGGAAGCCGGGCCTGCGATCGAGCGGCCCGGATATCAGCGAATTATCTGACTGACTGGACACTACGGCATGCAAAGCAAAACCACGAGACGATCTTTCGTCAAAGGCCTGGC (double strand) [copA2 (copAB2) promoter probe]
binds: all assays above

— article PMC12428095
